Laboratory results taken from patent US5185323A, “Suppression of megakaryocytopoiesis employing platelet factor 4 antimaturation factor” (Temple University, priority 1988, dated 1993).

Columns and labels:
Type in all cases: cell-based
[1] = test system: normal human megakaryocyte progenitor cells; assay: Megakaryocyte colony formation in plasma clot culture, unseparated marrow MNC (proliferation assay); details: control ~11 colonies
Description: FIG. 1 graphically illustrates the effect of highly purified platelet factor 4 (PF4) on clonogenicity of normal human megakaryocyte progenitor cells in plasma clot culture. Bone marrow mononuclear cells (MNC) were isolated by density gradient sedimentation and then suspended in the appropriate culture medium, to which was added PF4 in the amounts indicated. The cell suspensions were plated, and cultured for twelve days at 37° C. in a humidified environment containing 5% CO2, and resulting megakaryocyte colonies were then enumerated in situ with an indirect immunofluorescence assay using a polyspecific antiplatelet glycoprotein antiserum as probe. Aggregate results (mean±S.D.) of five separate experiments are shown. Numbers at top of bars indicate p value in comparison to control (CONT.).
Megakaryocyte colonies were cloned in plasma clot cultures as previously described (e.g., Blood 61: 384-9, 1983). […]
(§1) Megakaryocyte colonies were enumerated by indirect immunofluorescence assay utilizing a rabbit anti-human platelet glycoprotein antiserum as a megakaryocyte probe (ibid.). […] A cluster of three or more intensely fluorescent cells was counted as one colony. […]
To determine if PF4 could modify megakaryocyte colony formation in vitro, a screen assay was performed by adding various amounts of pure protein to unseparated marrow MNC. […] In the presence of 2.5 μg/ml of PF4, ~7 colonies were counted. […]

[2] = test system: human megakaryocyte progenitor cells; assay: Megakaryocyte colony formation in plasma clot culture, MNC depleted of adherent monocyte-macrophages and T lymphocytes; details: PF4 25 μg/ml; four experiments (FIG. 3)
From the text: FIG. 3 graphically illustrates the effect of highly purified platelet factor 4 (PF4) on normal human megakaryocyte colony formation in vitro in the absence of accessory marrow immunocytes. Isolated bone marrow mononuclear cells (MNC) were depleted of adherent monocyte-macrophages and lymphocytes and treated as detailed in the Examples. Each line represents the result of a single experiment performed in quadruplicate culture plates. p values in comparison to control are indicated for each experiment.
(§2) Megakaryocyte colonies were cloned in plasma clot cultures as previously described (e.g., Blood 61: 384-9, 1983). The cell population cultured consisted of either unseparated high density marrow mononuclear cells (MNC), or MNC depleted of adherent monocytemacrophages (MO) and T lymphocytes using methods previously reported (e.g., J. Immunol. 2915-2925, 1987). To provide essential growth factors, all cultures were supplemented with normal human AB serum (30% v/v) derived from the platelet-poor plasma of a single donor.
as §1, with “colony. Unless otherwise stated, all data are reported as the mean± S.D. of colonies enumerated.” for “colony.”

[3] = test system: human megakaryocyte progenitor cells; assay: Megakaryocyte colony formation in co-culture with autologous T lymphocyte subsets
From the text: as §2
Megakaryocyte colonies were enumerated by indirect immunofluorescence assay utilizing a rabbit anti-human platelet glycoprotein antiserum as a megakaryocyte probe (ibid.). […] A cluster of three or more intensely fluorescent cells was counted as one colony. Unless otherwise stated, all data are reported as the mean± S.D. of colonies enumerated.
Since the majority of marrow T lymphocytes are of the suppressor type, and PF4 is described in the prior art as inactivating these cells, the results obtained in Examples IA and IB were unexpected. In fact, it was anticipated that colony formation might be increased because of unopposed T helper activity. Putative progenitor cell-T cell-PF4 interactions were accordingly studied. Control target cells, depleted of adherent monocytes and T lymphocytes were cloned in plasma clots under standard conditions (Table 3). Aliquots of these target cells were also cloned in the presence of either CD4^+ helper, or CD8^+ suppressor T cells alone, or T effector cells plus PF4 at two different concentrations, 2.5 and 25 μg/ml.

[4] = test system: normal human erythroid colony forming units (CFU-E); assay: Erythroid colony formation (CFU-E) in plasma clot culture (specificity assay); details: concentrations of PF4 which consistently inhibited megakaryocyte colony formation; FIG. 4
From the text: FIG. 4 graphically illustrates the effect of highly purified platelet factor 4 (PF4) on clonogenicity of normal human erythroid colony forming units (CFU-E) in plasma clot culture in the absence of accessory marrow immunocytes. Isolated bone marrow mononuclear cells (MNC) were depleted of adherent monocyte-macrophages and lymphocytes, as detailed in the Examples. After seven days in culture, plates were harvested and fixed and CFU-E detected by benzidine staining. Results of three separate experiments, each performed in quadruplicate culture plates, are shown. The effect of purified protein on inhibition of erythroid colony formation was tested.

B1: platelet factor 4 (protein, UniProt P02776 32-101, looked up)
Platelet factor 4: EAEEDGDLQCLCVKTTSQVRPRHITSLEVIKAGPHCPTAQLIATLKNGRKICLDLQAPLYKKIIKKLLES
notes: Megakaryocyte/platelet-specific α-granule protein purified from outdated human platelets by heparin-agarose chromatography, >95% pure
B1 was tested. Which megakaryocyte colonies enumerated ([1]; PF4 2.5 μg/ml, not significant (p>0.05), aggregate of five experiments) did it give?
The megakaryocyte colonies enumerated was ~ 7 colonies per 2×105 MNC plated.

What about the megakaryocyte colonies enumerated ([1]; PF4 25 μg/ml, p<0.007, aggregate of five experiments) of the same molecule?
The megakaryocyte colonies enumerated was “five”.

And the “effect on megakaryocyte colony formation” value [2]?
Its value is “greatly inhibited in each of the experiments”.

And the “mean inhibition of megakaryocyte colony formation” value [2]?
The value was ~ 78%.

What about the “dependence of colony suppressive effect on T lymphocytes” value [3] of the same molecule?
The value was “indifferent to the presence of T lymphocytes”.

And the “effect on colony formation in presence of CD4+ (helper) cells” value ([3]; PF4 2.5 μg/ml)?
Its value is “unchanged”.

And the “megakaryocyte colonies enumerated (mean ± SEM)” value ([3]; Study 1, C/T4 2:1 + PF4 2.5 μg/ml, control 7 ± 2, C/T4 alone 11 ± 0)?
The value was 8 ± 1 colonies.

And the “megakaryocyte colonies enumerated (mean ± SEM)” value ([3]; Study 1, C/T8 2:1 + PF4 2.5 μg/ml, control 7 ± 2, C/T8 alone 6 ± 1)?
Its value is 18 ± 2 colonies.

And the “megakaryocyte colonies enumerated (mean ± SEM)” value ([3]; Study 2, C/T4 2:1 + PF4 2.5 μg/ml, control 4 ± 1, C/T4 alone 3 ± 1)?
Its value is 5 ± 1 colonies.

What about the “megakaryocyte colonies enumerated (mean ± SEM)” value ([3]; Study 3, C/T8 2:1 + PF4 2.5 μg/ml, control 11 ± 3) of the same molecule?
Its value is 7 ± 2 colonies.

And the “megakaryocyte colonies enumerated (mean ± SEM)” value ([3]; Study 3, C/T8 2:1 + PF4 25 μg/ml, control 11 ± 3, p < .05)?
The value was 1 ± 0 colonies.

What about the “megakaryocyte colonies enumerated (mean ± SEM)” value ([3]; Study 4, C/T4 2:1 + PF4 2.5 μg/ml, control 116 ± 6, C/T4 alone 141 ± 22) of the same molecule?
The value was 122 ± 29 colonies.

What about the “megakaryocyte colonies enumerated (mean ± SEM)” value ([3]; Study 4, C/T4 2:1 + PF4 25 μg/ml, control 116 ± 6, C/T4 alone 141 ± 22, p < .05) of the same molecule?
The value was 8 ± 1 colonies.

And the “megakaryocyte colonies enumerated (mean ± SEM)” value ([3]; Study 4, C/T8 2:1 + PF4 2.5 μg/ml, control 116 ± 6, C/T8 alone 163 ± 13, p < .05)?
Its value is 87 ± 15 colonies.

And the “megakaryocyte colonies enumerated (mean ± SEM)” value ([3]; Study 4, C/T8 2:1 + PF4 25 μg/ml, control 116 ± 6, C/T8 alone 163 ± 13, p < .05)?
The value was 13 ± 2 colonies.

What about the “megakaryocyte colonies enumerated (mean ± SEM)” value ([3]; Study 5, C/T4 2:1 + PF4 25 μg/ml, control 33 ± 6, C/T4 alone 39 ± 4, p < .05) of the same molecule?
The value was 3 ± 1 colonies.

And the “megakaryocyte colonies enumerated (mean ± SEM)” value ([3]; Study 5, C/T8 2:1 + PF4 2.5 μg/ml, control 33 ± 6)?
Its value is 33 ± 4 colonies.

What about the “megakaryocyte colonies enumerated (mean ± SEM)” value ([3]; Study 5, C/T8 2:1 + PF4 25 μg/ml, control 33 ± 6, p < .05) of the same molecule?
The value was 3 ± 1 colonies.

What about the “effect on colony formation in presence of T cells” value ([3]; high concentration of PF4) of the same molecule?
The value was “highly significant decrease in colony formation”.

What about the “inhibition of erythroid colony formation units (CFU-E)” value [4] of the same molecule?
Its value is “no inhibition”.
